In the test the target is HLA-A*02 (human). Put plainly: UV ligand exchange, anti-b2m ELISA; exchange yield grade. In general terms: An ELISA detects its analyte on a solid surface through an enzyme-linked reagent.

B1: VLLRVLIL (peptide)
peptide: VLLRVLIL
Regarding B1, the peptide exchange yield lay within 20 to 49%.

(Values after US20170056488A1.)
